Data reported in PMC5306213, “Common Distribution of gad Operon in Lactobacillus brevis and its GadA Contributes to Efficient GABA Synthesis toward Cytosolic Near-Neutral pH” (Frontiers in Microbiology, 2017).

Experiments:
[1] = substrate: N[C@@H](CCC(=O)O)C(=O)O; experiment: glutamate decarboxylation assay, Michaelis-Menten fit; type: biochemical, Lactiplantibacillus plantarum; details: pH 4.8, 60 °C, McIlvaine (citrate-phosphate) buffer, PLP, glutamate 0.9-36 mM
Text: glutamate decarboxylation assay, Michaelis-Menten fit on Lb. plantarum GadB

[2] = substrate: N[C@@H](CCC(=O)O)C(=O)O; experiment: as above; type: biochemical, Levilactobacillus brevis; details: pH 4.8, 45 °C, sulfate buffer (0.8 M sodium sulfate, 50 mM sodium acetate), PLP, glutamate 0.9-36 mM
Text: glutamate decarboxylation assay, Michaelis-Menten fit on Lb. brevis GadA (WT)

B1: Lb. plantarum GadB (Lactiplantibacillus plantarum WCFS1) (protein)
chain: MAMLYGKHNHEAEEYLEPVFGAPSEQHDLPKYRLPKHSLSPREADRLVRDELLDEGNSRLNLATFCQTYMEPEAVELMKDTLAKNAIDKSEYPRTAEIENRCVNIIANLWHAPDDEHFTGTSTIGSSEACMLGGLAMKFAWRKRAQAAGLDLNAHRPNLVISAGYQVCWEKFCVYWDVDMHVVPMDEQHMALDVNHVLDYVDEYTIGIVGIMGITYTGQYDDLAALDKVVTHYNHQHPKLPVYIHVDAASGGFYTPFIEPQLIWDFRLANVVSINASGHKYGLVYPGVGWVVWRDRQFLPPELVFKVSYLGGELPTMAINFSHSAAQLIGQYYNFIRFGMDGYREIQTKTHDVARYLAAALDKVGEFKMINNGHQLPLICYQLASREDREWTLYDLSDRLLMNGWQVPTYPLPANLEQQVIQRIVVRADFGMNMAHDFMDDLTKAVHDLNHAHIVYHHDAAPKKYGFTH
notes: recombinant in E. coli from pET-28a(+), +GSHM at N-terminus (left after tag cleavage, details in supplement); start MAMLYGKH (from primer); about 54 kDa from kcat/Vmax; dimer per cited work
Km [1]: 20.02 ± 2.557 mM | Vmax [1]: 73.3 µmol/min/mg | kcat [1]: 65.9 ± 4.2 s⁻¹ | kcat/Km [1]: 3290 M⁻¹ s⁻¹

B2: Lb. brevis GadA (WT) (Levilactobacillus brevis ATCC 367) (protein)
chain: MNKNDQETQQMINNVDLEKTFLGSVEAGQSLPTNTLPDDPMAPDVAAQLVEHYRLNEAKANQNLATFCTTQMEPQADELMKNALNTNAIDKSEYPKTAAMENYCVSMIAHLWGIPDNEKIYDDFIGTSTVGSSEGCMLGGLALLHSWKHRAKAAGFDIEDLHSHKPNLVIMSGYQVVWEKFCTYWNVEMRQVPINGDQVSLDMDHVMDYVDENTIGIIGIEGITYTGSVDDIQTLDNLVTEYNKTATMPVRIHVDAAFGGLFAPFVDGFNPWDFRLKNVVSINVSGHKYGMVYPGLGWIVWRHNTADILPAEMRFQVPYLGKTVDSIAINFSHSGAHISAQYYNFIRFGLSGYKTIMQNVRKVSLKLTAALKTYGIFDILVDGSQLPINCWKLADDAPVGWTLYDLESELAKYGWQVPAYPLPKNRDDVTISRIVVRPSMTMTIADDFLDDLKLAIDGLNHTFGVTTTVDQDNKTTVRS
notes: recombinant in E. coli from pRSETA-SUMO with N-terminal His-SUMO tag (tag removal told only in supplement); native N-terminus MNKNDQET (from primer); tetramer per cited work
Km [2]: 26.95 ± 2.437 mM | Vmax [2]: 9.16 µmol/min/mg | kcat [2]: 8.17 ± 0.405 s⁻¹ | kcat/Km [2]: 303 M⁻¹ s⁻¹
